Where only a bound is given, the exact number is not on record here.

Two substances from patent publication US20060057146A1 can be followed below.

Assay [1] concerns the target recombinant ED-B domain of fibronectin (UniProt P02751). The experiment in a line: 125I-labelled antibody on ED-B Sepharose column, bound against unbound radioactivity, before injection.
The target is the same in assay [2]. The experiment in a line: 125I-labelled antibody in mouse plasma 48 h after i.v. injection, ED-B Sepharose column.
The target is the same in assay [3]. The assay can be described thus: 125I-labelled antibody in mouse plasma 3 h after i.v. injection, ED-B Sepharose column.
Assay [4] has the same target. The experiment in a line: 125I-labelled antibody in mouse plasma 72 h after i.v. injection, ED-B Sepharose column.
For assay [5] the target is unchanged. The experiment in a line: 125I-labelled antibody in mouse plasma 6 h after i.v. injection, ED-B Sepharose column.
The target is the same in assay [6]. The assay can be described thus: 125I-labelled antibody in mouse plasma 144 h after i.v. injection, ED-B Sepharose column.
Assay [7] has the same target. The experiment in a line: 125I-labelled antibody in mouse plasma 24 h after i.v. injection, ED-B Sepharose column.

Chain of UniProt P02751 (P02751 1266-1356 limits assumed): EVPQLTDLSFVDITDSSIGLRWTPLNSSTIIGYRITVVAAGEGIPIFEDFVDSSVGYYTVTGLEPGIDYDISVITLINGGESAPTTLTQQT
Chain of scFv(L19) (VH): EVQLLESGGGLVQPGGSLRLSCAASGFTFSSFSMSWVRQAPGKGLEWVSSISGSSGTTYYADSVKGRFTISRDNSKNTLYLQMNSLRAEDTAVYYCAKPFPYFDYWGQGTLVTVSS
Chain of scFv(L19) (VL): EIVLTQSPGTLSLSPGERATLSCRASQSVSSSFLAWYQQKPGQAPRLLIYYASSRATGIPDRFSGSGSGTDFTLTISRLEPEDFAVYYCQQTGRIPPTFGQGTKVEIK

As to “L19 small immunoprotein (L19-SIP) (from UniProt P01854 319-426)”, the immunoreactivity (percentage bound to ED-B Sepharose) in assay [1] is more than 90%.

scFv(L19): the Immunoreactivity (I), % of the value before i.v. injection in assay [2] came out at 14%; in assay [3], 36%; in assay [4] it was 9%; in assay [5] it was 32%; in assay [6], 4%; in assay [7], 27%. In assay [1], the immunoreactivity (percentage bound to ED-B Sepharose) was more than 90%.
